Test system: MS2 coat protein
Assay: apparent KD of MS2 coat protein; designed switch direction (-1 OFF switch, 1 ON switch): 1; higher = weaker reporter binding
In short: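 Three titration conditions were used: no input, 200 uM small-molecule ligand, and an oligonucleotide input. In each, SNAP-549-labelled MS2 coat protein was raised from 0.7 or 1.5 nM, doubling, to 3 µM over designed RNA switches transcribed on Illumina chips by stalled E. coli RNA polymerase. Curve fits of normalised cluster fluorescence gave values whose per-design median over clusters is the apparent KD.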

[1] = input ligand: microRNA oligo, concentration not stated
[2] = Eterna round: R95, input ligand: FMN 200 uM
[3] = Eterna round: R95, input ligand: microRNA oligo, concentration not stated
[4] = Eterna round: R95, input ligand: none

Sequence	apparent KD of MS2 coat protein (input ligand: FMN 200 uM) [nM]	apparent KD of MS2 coat protein [1] [nM]	apparent KD of MS2 coat protein (input ligand: none) [nM]	apparent KD of MS2 coat protein [2] [nM]	apparent KD of MS2 coat protein [3] [nM]	apparent KD of MS2 coat protein [4] [nM]
UGGCUCAGACUAGGAUAUAUGUGGUCACAUGAGGAUCACCCAUGUCUCGAGCUUCGGCUCGAGGCAUAGAAGGAGUCUGAGCCA [SSNG2/5-D2] (Eterna round: R96, puzzle: Same State NG 2)	1540	329	26.5			
AGAUCAUGACGAGGAUAUGGUACAUGAGGAUCACCCAUGUAUGUAUCAUAACGCGAAUGACGAAUCCAGAAGGCGUCGUGGUCA [JL SSNG2 1.12] (Eterna round: R96, puzzle: Same State NG 2)	9.94	14.7	22.7			
GGUCGGUCCAAACAUGAGGAUCACCCAUGUCCGGAAACGGCAUAGGAUAUCUGUCCGAAAAGGUCAGAGAAGGGUGAACCGACC [Fiskers NG3ss - 71] (Eterna round: R96, puzzle: Same State NG 3)	795	741	149			
GGGCCAGCCUGUGCUGGGCCUUCGCAUGCACAUGAGGAUCACCCAUGUCGUGUACAUGCUUUUUGCUCGUCUUUAAA [Photon Torp-10] (puzzle: Sensor for hsa-mir-208a)				40.9	12.6	42.7
GGAGGACAUGAGGAUCACCCAUGUAAAUGGGCGCUAGGAUAUGCGAGAGGGUGGAGAGGAGCAGAAGGAGUGGAUA [JR_SS1_Sub039] (puzzle: Same State 1)				105	180	207
AGCUAUUAAUCAGGAUAUGGUGACAUGAGGAUCACCCAUGUAUAGAUGAUUAAAUGUGGUCUAUACCAGAAGGGAUUACUAACA [SameState NG2 #52] (Eterna round: R96, puzzle: Same State NG 2)	55.5	247	356			
AAUUAAUUAAUACAUGAGGAUCACCCAUGUAAUUAUUAGAUCUAGGAUAUCAGCUCGAUUAGAGCUGAGAAGGAGAUCACAUGU [SSNG3/18-B2] (Eterna round: R96, puzzle: Same State NG 3)		13.6				
UAUGAACAUGAGGAUCACCCAUGUGGAAAGGACACAGGAUAUCACCUCGGACGUGCGAUGUGAGAAGGGUGAUGGU [Anrelari] (puzzle: Same State 1)				260	103	125
GCAGAACAUGAGGAUCACCCAUGUCUCUAAAGUCGAGGAUAUGGGCAGGUUAUAUCCGAACCAGAAGGCGAUCUGC [SS1 Teenbexe 13] (puzzle: Same State 1)					108	
GCCGCGAAGCGAGGAUAUACUGUCCGAGAGCCGCAAACAUGAGGAUCACCCAUGUAGGUGAGACCGUAGAAGGCGUAAGCGCAA [Eternabot solution 19] (Eterna round: R96, puzzle: Same State NG 2)	46	235	331			
GCUCGCGGCACAGGAUAUGGGUGCCUGUACAUGAGGAUCACCCAUGUUAAGGGACGGAUUACGAACCAGAAGGGUGAGGCGGGC [Axearisar] (Eterna round: R96, puzzle: Same State NG 2)	63.8	120	768			
AUUAUUUAUGCAGGAUAUGAUUAACAUGAGGAUCACCCAUGUGGUGUUGUGAGUAAGGAGAGUGAUCAGAAGGGCAUUUAUUUU [JMF's solution 47] (Eterna round: R96, puzzle: Same State NG 2)	926	559	669			
ACUUGCUUUUUGCUCAUUUUUUGUCCGUAACAUGAGGAUCACCCAUGUGUAGAUUAUGUGUUGUUUUUGAUACGUGA [JR_SHM208A_Sub068] (puzzle: Sensor for hsa-mir-208a)				29.9	29.5	34.6
CGUAGGUAGCUGGAGGAUAUUCGAGUGGUAACAUGAGGAUCACCCAUGUGGAGUUAGUUACAUGAGGAGAAGGCUAGCUGCCUGC [JL-ss2-3.17 JL mod] (puzzle: Same State 2)				36.7	61	74.5
CCGAUGACAGGACAGGAUAUGACUGUCGUCACAUGAGGAUCACCCAUGUCCCGGCAAUGCCACCGUUAGAAGGGUCCUAUCUCGG [Arxeina] (puzzle: Same State 2)				16.7	16.3	18.2
AGGCCACCGGGAGGAUAUGGCACCUAUAUGGUGCCAGAAGGCUCAACAUGAGGAUCACCCAUGUGGGUGGGUUCUAAUGAACAA [Fiskers NG1 - 1] (Eterna round: R96, puzzle: Same State NG 1)	69.1	41.7	46.7			

Sequence	apparent KD of MS2 coat protein (input ligand: FMN 200 uM) [nM]	apparent KD of MS2 coat protein [1] [nM]	apparent KD of MS2 coat protein (input ligand: none) [nM]	apparent KD of MS2 coat protein [2] [nM]	apparent KD of MS2 coat protein [3] [nM]	apparent KD of MS2 coat protein [4] [nM]
AUUGCUAUCACAGGAUAUCAUGCGAAAAUUGCGUGAGAAGGGUGGACUCUGUCAUUGCCGGAGGACAUGAGGAUCACCCAUGUC [SameState NG1 #100] (Eterna round: R96, puzzle: Same State NG 1)	96.2	27	60.9			
GGUCCAGCCUGAGCUGGACGAAAGUAUGUACAUGAGGAUCACCCAUGUCAUGUAUAAGUUUUUUGUUCGUCUUGAAA [Sensorship 1 - Jieux - Sensor for hsa-mir-208a] (puzzle: Sensor for hsa-mir-208a)				26	14.2	23.1
GAGCCAGUCCGAGGAUAUUCAUACAUGAGGAUCACCCAUGUAGGCUCAGAAAAGAAAGAGCCUUGGGAGAAGGCGGACUGGCUC [Xeonanisa<<6] (Eterna round: R96, puzzle: Same State NG 2)	6.96	6.06	10.9			
AUUUAACAAGCUUUUUGCUCGUCUUAUAAACAUGAGGAUCACCCAUGUAAUAGCGUGAGAGUAAAUUUUUAAAUAAU [JMF 95] (puzzle: Sensor for hsa-mir-208a)				14.5	38.9	14.8
GCUAGAAUUAAAGCCAACAUGAGGAUCACCCAUGUAUGUUGGUAGGAUAUCGUUUGCUUUGCAAACGAGAAGGGCUAAUCUAGC [JL SSNG3 1.22] (Eterna round: R96, puzzle: Same State NG 3)	62.4	59.8	69.2			
GAGGGAUGAGCGUAGGAUAUAGGAGAAGUGACAUGAGGAUCACCCAUGUGGUAUGAGGGAUGAUUCUAGAAGGACGCGGUAGGAG [JR_SS2_Sub062] (puzzle: Same State 2)				154	494	116
UUUAGUUGCGGGCAGGAUAUGUAUUAAAAUACAUGAGGAUCACCCAUGUGUGGGUAUAACACCCAACAGAAGGGCCAAUCGCGAC [Laonerce - 12] (Eterna round: R96, puzzle: Same State 2)		94.4				
CUGCUACAUGAGGAUCACCCAUGUUGGAGUAAUGCAGGAUAUGUGAGACCAGAAGAUAAAACAGAAGGGCAAGGAG [JR_SS!_Sub008] (puzzle: Same State 1)				18.8	20.8	24.6
GAGAGACGAUUAGGAUAUACAGUGAUAAUGAUAGUAGAAGGAAUUGACAUGAGGAUCACCCAUGUAGGACUAAUCCAGAGAGAG [Parity 27 - Jieux - Same State NG 1] (Eterna round: R96, puzzle: Same State NG 1)	46	36.4	52.2			
UUAAUUAAUUAAUUAUACAUGAGGAUCACCCAUGUAAGUGAUCAGGAUAUCAGCUCGUGUAGAGCUGAGAAGGGAUACAUGUAA [SSNG3/12-A4] (Eterna round: R96, puzzle: Same State NG 3)		147				
UCUUGGUUUUUGCUCGUUUUUUGUGUUGAACAUGAGGAUCACCCAUGUAUUGUACAAUCCGGUUUGAUGAUGGUCCG [JMF 52] (puzzle: Sensor for hsa-mir-208a)				57.2	44.5	54.1
AGUCCAGCCUGAGCUGGACAAAAGCAUGUACAUGAGGAUCACCCAUGUUCAUGUACAAGCUUUUUGCUCGUCUUAAU [salish99_208a_r3_027] (puzzle: Sensor for hsa-mir-208a)				480	14	643
GGAGAACAUGAGGAUCACCCAUGUAAGCGUUAGCUAGGAUAUGCGGGAAGGAAGAGAGAAGCAGAAGGAGUCGGUA [JR_SS1_Sub032] (puzzle: Same State 1)				34.9	39.4	67.8
UAUGCACAUGAGGAUCACCCAUGUGGUAAGACCACAGGAUAUCACCUCGGACGUGCGAUGUGAGAAGGGUGAUGGU [Same State 1 - Mod of Vinnie Anrelari v.3] (puzzle: Same State 1)				491	289	379
AGCCUGAGUCGAGGAUAUUAUGGAUCCUUUAAUACAUGAGGAUCACCCAUGUAAUUAAUUAUACAUGAGAAGGUGACUCAGGCA [SSNG2/11-B1] (Eterna round: R96, puzzle: Same State NG 2)		186				
CGAACACGUUGAGGAUAUGCAGAGGAUCACCCUGUAGAAGGCAACAGAUGAGGAUAUGCAGAGGAUCACCCUGUAGAAGGCAAC [pwkr ssNG DX.5] (Eterna round: R96, puzzle: Same State NG 1)	54.3	68.6	116			

— the supplement of paper PMC9170038
